Measurements taken from article doi:10.1101/2020.02.11.943977.

Molecular target: Replication protein A (RPA heterotrimer) (human) (UniProt P27694+P15927+P35244)
Assay: competition

Chain of Replication protein A (RPA heterotrimer) (human) (P27694 whole entry, chain 1 of 3): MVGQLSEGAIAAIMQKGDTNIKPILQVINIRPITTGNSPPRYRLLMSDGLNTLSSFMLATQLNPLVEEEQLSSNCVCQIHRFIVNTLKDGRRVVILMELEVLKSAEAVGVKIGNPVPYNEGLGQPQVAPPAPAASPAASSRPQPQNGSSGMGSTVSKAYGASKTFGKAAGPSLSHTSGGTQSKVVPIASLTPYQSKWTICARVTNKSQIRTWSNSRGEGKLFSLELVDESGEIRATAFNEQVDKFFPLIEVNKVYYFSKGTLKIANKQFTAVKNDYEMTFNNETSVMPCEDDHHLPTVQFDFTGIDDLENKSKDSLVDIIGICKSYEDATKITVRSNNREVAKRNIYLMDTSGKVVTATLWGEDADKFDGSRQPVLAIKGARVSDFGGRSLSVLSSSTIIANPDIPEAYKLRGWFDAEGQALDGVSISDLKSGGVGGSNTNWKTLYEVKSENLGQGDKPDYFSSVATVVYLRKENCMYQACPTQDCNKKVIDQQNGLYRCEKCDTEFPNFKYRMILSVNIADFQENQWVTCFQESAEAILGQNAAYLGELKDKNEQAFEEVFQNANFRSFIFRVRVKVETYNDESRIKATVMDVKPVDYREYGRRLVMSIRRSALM
Chain of Replication protein A (RPA heterotrimer) (human) (P15927 whole entry, chain 2 of 3): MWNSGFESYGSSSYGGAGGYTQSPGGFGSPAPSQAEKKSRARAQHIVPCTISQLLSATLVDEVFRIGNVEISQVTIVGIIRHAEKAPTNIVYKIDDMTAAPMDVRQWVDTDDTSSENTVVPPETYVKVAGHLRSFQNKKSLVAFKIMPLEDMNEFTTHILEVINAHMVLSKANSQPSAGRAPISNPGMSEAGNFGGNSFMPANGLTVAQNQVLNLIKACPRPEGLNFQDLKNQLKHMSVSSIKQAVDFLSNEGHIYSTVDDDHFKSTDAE
Chain of Replication protein A (RPA heterotrimer) (human) (P35244 whole entry, chain 3 of 3): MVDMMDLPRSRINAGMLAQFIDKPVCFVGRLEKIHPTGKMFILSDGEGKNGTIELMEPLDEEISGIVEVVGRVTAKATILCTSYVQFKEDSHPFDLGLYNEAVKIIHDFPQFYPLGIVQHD

pHSG299 supercoiled plasmid
binding signal (scale: fold lower affinity than RNA 501): 500 | binding signal (scale: fold lower affinity than ssDNA 211): 33000
